Measurements reported in PMC8930418.
pKd: −log10 of the molar value.

Target: dSpCas9 (catalytically inert dCas9) (UniProt Q99ZW2)
Assay: MST

Chain of UniProt Q99ZW2 (Q99ZW2 whole entry): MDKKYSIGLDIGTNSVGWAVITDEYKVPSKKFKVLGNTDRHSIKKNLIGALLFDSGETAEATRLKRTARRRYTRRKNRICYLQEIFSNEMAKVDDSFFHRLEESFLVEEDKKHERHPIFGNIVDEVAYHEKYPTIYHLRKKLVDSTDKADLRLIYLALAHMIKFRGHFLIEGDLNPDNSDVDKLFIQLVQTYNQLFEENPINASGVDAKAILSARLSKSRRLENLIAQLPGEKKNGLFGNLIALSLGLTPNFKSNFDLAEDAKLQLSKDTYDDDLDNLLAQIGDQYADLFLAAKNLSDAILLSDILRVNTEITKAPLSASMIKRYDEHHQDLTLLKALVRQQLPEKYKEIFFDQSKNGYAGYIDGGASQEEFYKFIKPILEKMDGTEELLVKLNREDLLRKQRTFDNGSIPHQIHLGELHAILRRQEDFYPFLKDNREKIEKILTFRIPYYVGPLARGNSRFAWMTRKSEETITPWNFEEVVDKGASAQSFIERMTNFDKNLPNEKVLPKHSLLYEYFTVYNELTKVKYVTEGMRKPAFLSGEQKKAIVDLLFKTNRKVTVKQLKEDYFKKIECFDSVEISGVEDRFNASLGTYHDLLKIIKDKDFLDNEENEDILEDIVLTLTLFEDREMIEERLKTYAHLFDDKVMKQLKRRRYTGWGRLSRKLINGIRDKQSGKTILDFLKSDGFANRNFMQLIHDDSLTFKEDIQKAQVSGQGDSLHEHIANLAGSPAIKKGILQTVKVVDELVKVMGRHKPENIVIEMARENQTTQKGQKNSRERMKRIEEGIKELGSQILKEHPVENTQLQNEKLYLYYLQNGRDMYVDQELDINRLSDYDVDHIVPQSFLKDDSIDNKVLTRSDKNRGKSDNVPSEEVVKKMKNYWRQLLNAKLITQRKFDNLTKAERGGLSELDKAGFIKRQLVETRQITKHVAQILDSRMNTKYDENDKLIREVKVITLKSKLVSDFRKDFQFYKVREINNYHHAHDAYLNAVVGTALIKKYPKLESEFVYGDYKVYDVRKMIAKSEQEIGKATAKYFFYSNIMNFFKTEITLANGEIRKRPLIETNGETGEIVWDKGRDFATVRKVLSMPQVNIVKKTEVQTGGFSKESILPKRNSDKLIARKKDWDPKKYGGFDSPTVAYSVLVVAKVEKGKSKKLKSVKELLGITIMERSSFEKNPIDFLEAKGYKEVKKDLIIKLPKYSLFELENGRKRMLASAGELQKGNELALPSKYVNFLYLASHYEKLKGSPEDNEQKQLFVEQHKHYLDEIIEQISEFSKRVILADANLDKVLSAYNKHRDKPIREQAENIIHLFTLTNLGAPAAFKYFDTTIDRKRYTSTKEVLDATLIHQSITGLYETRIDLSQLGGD

Sequence	pKd
GGCCCAGACTGAGCACGTGAGTTTTAGAGCTAGAAATAGCAAGTTAAAATAAGGCTAGTCCGTTATCAACTTGAAAAAGTGGCACCGAGTCGGTGCTGGAGGAAGCAGGGCTTCCTTTCCTCTGCCATCACTTATCGTCGTCATCCTTGTAATCCGTGCTCAGTCTGTCTCTCTCTTGACGCGGTTCTATCTAGTTACGCGTTAAACCAACTAGAAATTTTTT [evopreQ1 epegRNA (guide) + HEK3 dsDNA target]	8.00
GGCCCAGACTGAGCACGTGAGTTTTAGAGCTAGAAATAGCAAGTTAAAATAAGGCTAGTCCGTTATCAACTTGAAAAAGTGGCACCGAGTCGGTGCTGGAGGAAGCAGGGCTTCCTTTCCTCTGCCATCACTTATCGTCGTCATCCTTGTAATCCGTGCTCAGTCTGTTTTTT [unmodified pegRNA (guide) + HEK3 dsDNA target]	8.09
